Measured values as given in the DeepSol protein solubility set.

Experiment: soluble on expression in E. coli; label from the status in PepcDB or PDB records
For “METETDDSETSLNDSFGNKDGLELLEYERATLAKTLPASVLFVVANGLGLERLFLEHLILFSDRRLLALVLNTNEHDESYFVSKLKEHNVECDPKVINSEVSIKDRQSIYLEGGVQFCSSRVLLVDLLQNRIPTDRIAAIFVYRAHQTLNAFQDSFILRLYREKKPDGTVKAFTDFPNSLSSLGQLQRLVDRLYIRHVELMPRFSSIIESELNRYQLKTAIFSVDVPTPLRRVHRTIIEFIKVCVRDLRTCSTSGKQTDEQNEEMIHVPWAATRLEKRLHDRRGHISEKQQRLLNDVASLREILQLSENMDVATVLSRLQVLKNDRTVLEEHSGWLLSPSFNRIMEDLLTIAGVTNGKADYKKFATPAKWTVLSEILREIKMLPVEKKDRGNDSPSVLVITSSEDLSRQVTDVVRYGINKMKWMTWRQLGYKSTQEMPEDEPLWDPDTISQLMRSSVDGESKSEVIANVQKTQKTTARAAQKRRKHAEELSGFSSDHRVQTNLIQFGILQYKRRKSGNEASTSQETTEWEVKEEMEEIEEITKNIGDLEAELVVSTTRERERYTLLKLLETKKPRAIVLYTMSLQTLRQIEIYRSTNPNRSLHVYWLQYTESTEESRYLESINRETMSFELLIREQGTLLISREFNVDREDAPRLKISTRDGGGARRDGAVDPRDQMDPEEELERPKIIVDMREFNSELPTVLYTKGYNVVATTIEIGDYILSPNIAIERKALDDLTQSLQSGRVFKQIEQMLEHYDCTVLLIESNRKFETKIVNGGPFQGELSRHCREIRSIFCSLIWANPKMRCVWTISPTNSAEFFSELKLSAPEPDVDRAISLKADQVECSSQELTDSEASTSTKAKKGKKWKPNPTVIRTLTQIFGIKASEAHNLLANSSIKTLADLFSLNITASHLSDFIPSTSADFIKDLSTFNFGRK”, the “soluble on expression in E. coli” value was “not soluble”. In the case of “METKPYLIALDLDGTLLKDDKTISENTLHTIQRLKDDGHYVCISTGRPYRSSSMYYQQMELTTPIVNFNGAFVHHPQDDSWGRYHTSLPLDVVKQLVDISESYNVHNVLAEVIDDVYFHYHDEHLIDAFNMNTTNVTVGDLRENLGEDVTSVLIHAKEEDVPAIRSYLSDVHAEVIDHRRWAAPWHVIEIIKSGMNKAVGLQKISDYYGVPRERIIAFGDEDNDLEMLEFAGCGVAMGNGIDAVKQIANRTTATNEEDGVARFLKEYFSL”, the “soluble on expression in E. coli” value is reported as “soluble”. With “METLSDVFATFSQRGDTTAFVHRTGVRRYVFTYLDLHALSLRMNRWLADQGVGEGDRVVLWGPNSPWWAVAFWGIVTRGAVAVPVDFMSGAERAEIIAGLTDAKLVIQSRDKLDRLTGRPSVLLEELGFLLEAVEPLATTHRPAPDDMAELIYTSGTTGNPKGVILTHRNLVANILQVNRHIPVVTPDFSFLSLLPLSHMFEQMGGFFTPLYRGAAIVYIRTLKPSAIMEALGEEDIYAIIAVPRLLQLLKGSVERELEAKGLGSIFRWLLKVGERMSRGGRSVLFRPIQRKFGRNFALFVSGGAPLDPEVFRFWNGLGFRVVEGYGLTECSPVLTANTMERQVMGSVGTPLDGVELRLEEGEILARGDNIFPGYFRNEEATRGAFVDGWFRTGDLGELDPDGWLRIKGRSKELIVTGAGVNVYPDEIEAILNRTQGVREGCVIGLDRGKGEEVHGVLILDGSGRPTEEIVNEVNAKFDELHRITSFSVWPEAEFPKTTTLKIRKFQVKERIEQGGGALGDGRGADRLTALVATITGSPLEQVTEGALLVNDLGLTSIARLELVNALEMEFRLDLEDSVIGPQTRVADLREIVSRREKVHIREHFRIWAMGGVALAVRRLLDTVLHGPLLRAFVTLKSLGIENLEAADGPVMFVSNHLSYLDQPAIMCVLPDAWRYNTATAAWEEFFFRNFKNLPQRLWKRFTYEYASVAFTVFPLPQSRGFRGALHFMGTLADQGMNILLFPEGERSRDGRLLPFQQGLGVMIRELGVPVVPVRIRGLEKVLPRGASWPQKGEVSITFGKPIHFRGESPTEIVDRARRAVEDLLEHHHHHH” the “soluble on expression in E. coli” value was “not soluble”. In the case of “METRRDERIGRLAQALKKTDKLHLKDAAQLLGVSEMTVRRDLNADSTSVMLLGGYVVSDLKNNGVTNYFVSDQQTKHVREKQAIGTAAAYLVEANDTVFFDCGTTIPFIIDAIPDELLFTAICYSLNTFLALQEKKACRVILCGGEYHPDNAIFTPLNQRCELDNICPNKAFISAAGIELNAGATCFNFAELGMKQRAMATAQRIIIVADNSKFGQIKRACIGPMTLFDTVISDSAPSEPYLRYFSNNGIQLIHPGNLEHHHHHH”, the “soluble on expression in E. coli” value is reported as “soluble”. With “METTVMPAAASVQKQQGLNQVVINKVQRMIESRQGGVMDTINRLLSEGRIAQDFIAPIGVSQRSKERPVISFKAEGRVQMAMPEGNFNLHGNAISQISEKMGIPAKYLRELSAGDVWQKQLCATILNEHSGWTERTRVLIRAVGMEVRGVLSDSYRRLNSVDILTAFIREAGGQGAVVSDAYMNDTKVWCETILPTPIEIPTRKNGTVIIFAGARFSTSDYGNGSVEMRSFLLNGACLNGMVRESVMRQIHLGGRLPESLSLSQKTYELDTQTTVSAVSDLTKGLYSKDTIMQKAIEIQGASEIDVDFDKELKNLVQKGALLKNEGREVEKLLMNNNPDDGVTGGATLWKLTQGITAFAREQQPERCRELHEISGQLMNRVKIN” the “soluble on expression in E. coli” value was “not soluble”. In the case of “METVQDCENKLPPSLKSRLCEIRRYEIIEGPEMDKHIHCVMRALDFVYEDGRGDYHKLYDPLNIIELDKRHDVNLEKCIGECVQVPTSERAHVFYKCLLKSTTGRTFKKVFDLMELKKAGKVPQHQRYTAEFVQIMKDYDKALNC”, the “soluble on expression in E. coli” value is reported as “soluble”. With “MEVDPGGGKKPMIVKKMVAFSKREEERILLEIDLYKKLENNEFVIDLMAHIVDDITHYLLFDKYSQNFLEYIEELKIGGEVDELKHLKYFSGIVSAIEQLHGFEFAHLDIKPANILKSGDTIKMIDFGSATKMPIEIKTSADHHRHKEDAEELCSMMYRAPELFNCEIGSTLTTAVDVWALGVCLYEFLYLENPFNKIYEQGGSIALATQSPHMIKWNENRHISEKSINLIKSILIVDPNQRPTIGELRAKVDNLLANFDTPEEAENPEITDEEFDLGMRETT” the “soluble on expression in E. coli” value was “not soluble”. In the case of “MEVEYDEGFDSSSLKNNPASLQRDYPTFMESNCSQMSVRQEFLPIFPQRLDLCQISPKKSEKKSKKKKIPSPIKKTNDTKLSILSEKSEIRSEKHKNKCKSADLDAMEKNFKELLENFSKNAALSNSLRDEASSIISSSASSQKSLFKEINLAKKLSASYSKKPEKTGEKSKNCTFSDSTFRLSSQNDSDSDDTRPPSSQASLAFEVEQARNMMMSSAKIPKPLSSSTPRKERRTTGTNSDSNKILANLKIFKPKCGNFDLFTRKVPENIRLSESQLVELYSNREPRNSKSDITIRQFFDEEDDADKTIVEQVFKDYHRSLEKETPIMRNSATDTSGSLHIERNRDGRSASMSNLISNSGNRTNLTVFDGFAPGALRHSISTVQMSPTKKKFDEFRIEHQEPGILPRFVIKTSLRPIFSPPLDIDEICGKGLRKDAESNLRHFGGKTISAQIHGSKPVQRRPTVPKASKTGSDRPTTASTAKIVEKPEIPVEIPQKLEISRKIAEKTLKLDDFPVKSSNFSNISNFQPRRPPYCSATSSDGSAHSLATVTQQLMGTVKLLHPDWLDMLRRLLNNALPRDDVTLLFKYQVLAEKDHLERKFRGNLSVEAEAADAHLEHFGRISTLNRVLDRLADLTNDGGHVSRIQQIKIIHNALFKD”, the “soluble on expression in E. coli” value is reported as “not soluble”. For “MEVHDKIRTLREVNQWTQEEMAEKLEMSVNGYSKIERGKSGINLDKLRQIAQIFNIDVVELLAEQNRSFFFSIGDNTNNHHNIIGSDEMLVFENEKLRSLLDAKDELIRQKDSEIAVLKKLVILLEEKK”, the “soluble on expression in E. coli” value was “not soluble”. For “MEVSKANGTENNVEKFDAATQEATYLDEADVDAELEAMKKRLQEMEEEANRLKEVQEQSASEVPSSEEVDRRSVYVGNVDYGSTPEELQAHFKECGTINRVTILCDKFTGHPKGFAYIEFATEEGANNAVILNESLFRGRNLKVSIKRTNVPGISTTDRGRGRGFPRGIGFRGRGGLRGGFRGRGYHGFRGRGRMTPY”, the “soluble on expression in E. coli” value was “soluble”. With “MEVYIPSFRHEDSDLERGYTVFKIEVLMNGRKHFVEKRYSEFHALHKKLKKCIKTPEIPSKHVRNWVPKVLEQRRQGLETYLQAVILENEELPKLFLDFLNVRHLPSLPKAESCGSFDETESEESSKLSHQPVLLFLGDPYVLPAASDFPNVVIEGVLHGIFFSHLQPR” the “soluble on expression in E. coli” value was “not soluble”. With “MEYRLKAYYREGEKPSALRRAGKLPGLMYNRHLNRKVYVDLVEFDKVFRQASIHHVIVLELPDGQSLPTLVRQVNLDKRRRRPEHVDFFVLSDEPVEMYVPLRFVGTPAGVRAGGVLQEIHRDILVKVSPRNIPEFIEVDVSGLEIGDSLHASDLKLPPGVELAVSPEETIAAVVPPEDVEKLAEEAAAEVAEPEVIKKGKEEEEE” the “soluble on expression in E. coli” value was “soluble”. With “MFAELIRAGLQALIEAEATEAIGAGRYERSDGRIVHRNGHRPKTVSTTAGDIEVQIPKLRAGSFFPSLLERRRRIDKALHAVIMEAYVHGVSTRSVDDLVAAMGVQAGVSKSEVSRICAGLDTEIEAFRTRSLTHTEFPYVFCDATFCKVRVGAHVVSQALVVATGVSIDGTREVLGTAVGDSESYEFWREFLASLKARGLTGVHLVISDAHAGLKAAVAQQFSGASWQRCRVHFMRNLYTAVAAKHAPAVTVAVKTIFAHTDPEEVGAQWDRVADPLCQP” the “soluble on expression in E. coli” value was “soluble”. In the case of “MFCSFFHEKKKNILRLNIRCQRLREHDNTAKIELFKSMRRRRSSTKASRKTTMGGAAELEDEWIPSETMSGAGWKARGDRKPKDKRVPFNRPTPYQIYEALPFVRRYFMYWMKHTFDKEKLFINTFQPLKHKPYYGVPCGGIGCGAIGRDFRGGFCKFSLRPGLVEHKVDVVAADQFILSVRENDRCIYQKVLSAADVQRPSGQLSTWDFKFPKKNVHYRGLFPRSWTTFRVPELELTVVIRQVSPVLPHNYEDTTYPVCLFLIDVENGGSASREYEISVAFTFRNGTGNRRWEREAECSGVKFETEEEGLKPTTTAQEKISGVSLYHTISSMPCTYGLATTHREHTTTTVCERFDPSRNGAALWNHLKQTGDVPSCEEECLINAREMAVAVCNRFTLPPNSTKTHDYALSWDMPKVHFGSVARSYHRRYTRFFEASEAGSAADSLCVRALRLKDKWESEIEAWQSPILNHKKLPDWYKSAIFNELYFITDGGTVWFEFDENWAEHETHLSHYTKDKMKEIGRFGYLESWEYRMVNTYDVHFYASFALAELWPELEITIQSEFTDQVYHSIEKPTRFHMEGDWANVKTASRVPHDLGNPADEPWIATNAYVMHDTGKWKDLNMKYVLTSWRDYVVLSNEHEDFLFHTWPAVRMIMLEALENWDQDGDGMIENFGKADQTYDAWQMEGVSAYCGSLWLASLRVAIEMAGLMKDDETQQLFRNTLEKAKKVFIDTLWTGTYFRFCERSRSRETVMADQLCGYWFLQSVSPELADELLPNHMVRSALDTIYRLNVCKFGNGRMGAVNGMKPSGVVDREYIQADEMWTGVTYAVASLLIQQGEVEKAFHTASGSYLTCFEETGLQYQTPEALYESKFYRAIGYMRPLSIWAMQWSLKKHCGMNTSEEKLPNLVKNEKVVPESEAAIQVQKQRILGDTSEDGSSLGYVSDYHDERSIPKIATLR”, the “soluble on expression in E. coli” value is reported as “not soluble”. With “MFDISHMGRLLIEDPEKKLQYFTTNNLDKLSVGKVQYNLLPNEKGGIKDDVTVYMLSEIEFFLCVNAANRQKVINWLSPHLKLRDLSGELVQIALQGPKSEEIISKFYPVSDLKYYRFKVFDKTIISRTGYTGEDGFEIYVSPEEGKELFLELVKLAKPCGLGARDVLRIEAGLPLYGNELSEEITPIEVNLEKFVDFSKEFIGKEAMLKKKVKKKLFGLELTEKGIPRKGYRVFKGDREIGWISSGTYSPTLNKGIALCFVDIEERKEGNEVEIEVRGRRVRGVLRKYPFVRTPAGRYQKLEHHHHHH” the “soluble on expression in E. coli” value was “not soluble”. With “MFDLEKVQTLNELEMLVYHYVLEHLHQIPQQTIRQLATSCHVSTSTILRFCNKMGYAGFSELKYAVKEEAKQTQTFENFYDATVHVDAFLKKLNQETYYEMLRPAIQMIVQARHVAFTGIGTSGILGSYGSRYFANLNINSYSIADPFTPIPKRGFENTLALILSVSGETNEMIKQMTDFKTAGAKVLSITNNQHSTIARLADYNISYYMPDERSPFADKSVNTTTQIPVIALIELLAHQASQLLKELDETPS” the “soluble on expression in E. coli” value was “not soluble”.
